Assay [1] has as its target SecY_(A103C-V353C)EG (E. coli) (UniProt P0AGA2).
The target is the same in assay [2]. This is another data set of the same source.

A value given as a limit tells only on which side of the number the result lay.

Chain of SecA (P10408 whole entry): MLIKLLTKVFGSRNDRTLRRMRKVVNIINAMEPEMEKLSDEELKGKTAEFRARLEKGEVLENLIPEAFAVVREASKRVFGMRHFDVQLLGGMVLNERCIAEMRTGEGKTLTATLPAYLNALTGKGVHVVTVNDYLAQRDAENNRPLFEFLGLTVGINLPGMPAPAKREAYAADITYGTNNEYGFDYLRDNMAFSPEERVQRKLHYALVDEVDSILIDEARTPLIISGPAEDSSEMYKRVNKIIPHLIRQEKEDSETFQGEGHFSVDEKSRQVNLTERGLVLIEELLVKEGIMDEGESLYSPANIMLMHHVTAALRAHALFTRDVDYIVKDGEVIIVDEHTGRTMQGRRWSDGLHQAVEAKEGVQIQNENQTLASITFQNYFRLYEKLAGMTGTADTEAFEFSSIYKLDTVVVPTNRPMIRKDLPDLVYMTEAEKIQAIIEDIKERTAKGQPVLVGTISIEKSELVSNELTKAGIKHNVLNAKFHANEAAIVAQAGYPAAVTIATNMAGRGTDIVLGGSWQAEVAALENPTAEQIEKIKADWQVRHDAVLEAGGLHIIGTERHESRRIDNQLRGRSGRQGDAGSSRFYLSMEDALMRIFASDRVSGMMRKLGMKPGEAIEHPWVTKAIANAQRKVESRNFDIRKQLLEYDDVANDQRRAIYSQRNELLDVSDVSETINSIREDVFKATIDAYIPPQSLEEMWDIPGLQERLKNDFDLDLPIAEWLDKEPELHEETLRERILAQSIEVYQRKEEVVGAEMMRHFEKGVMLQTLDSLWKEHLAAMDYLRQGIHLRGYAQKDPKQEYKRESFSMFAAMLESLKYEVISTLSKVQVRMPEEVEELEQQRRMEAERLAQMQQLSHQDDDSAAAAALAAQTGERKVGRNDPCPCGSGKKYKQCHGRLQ

Consider “SecA (from UniProt P10408 1-901) (enzyme)”, for which the smFRET between dyes on SecY C103 and C353 in proteoliposomes: balance of open and closed states with 1 µM SecA, no nucleotide, no SS, against SecYEG alone in assay [1] turned out to be 2 fold. Also, the smFRET between dyes on SecY C103 and C353 in proteoliposomes: percent of time in the closed state with SecA, no nucleotide (~81% for SecYEG alone) in assay [2] is above 91%.

These data come from publication PMC10883268.
